Target: Ralstonia solanacearum lectin (Ralstonia solanacearum)
Assay: crystal structure

In the case of “Ralstonia solanacearum lectin (natural protein)”, the stoichiometry N is reported as 3.

Reference: publication PMC10306066
